Assay results reported in patent publication US20140348819A1, “Methods of Treating Cancer” (Dana-Farber Cancer Institute, Inc., priority 2011, published 2014).

Tested on: six V600E BRAF melanoma cell lines
Experiment: Screening of recombinant RTK ligands for ability to confer resistance to BRAFi (PLX4720) or MEKi (PD184352) (Table 4)
Assay type: cell-based, human
Design: ability of recombinant RTK ligand to confer resistance / ability of recombinant RTK ligand to confer resistance (screening value): scale not given here
Experimental: HGF is the only one that can substantially confer drug resistance to the cell lines.
The complexity of the tumor microenvironment is much greater than an in vitro co-culture system. Therefore, the inventors explored whether the activation of other RTKs could result in a similar resistance as that observed with the activation of MET. To this end, six V600E BRAF melanoma cell lines were tested for their resistance to either BRAFi (PLX4720) or MEKi (PD184352) after the addition of 22 RTK ligands that have the potential of activating almost all known RTKs. […] The activation of a selected subset of these RTKs was confirmed by western blotting and by high throughput tyrosine kinase phosphorylation profiling.

B1: Wnt1 (protein, UniProt P04628 28-370, looked up)
Proto-oncogene Wnt-1: ANSSGRWWGIVNVASSTNLLTDSKSLQLVLEPSLQLLSRKQRRLIRQNPGILHSVSGGLQSAVRECKWQFRNRRWNCPTAPGPHLFGKIVNRGCRETAFIFAITSAGVTHSVARSCSEGSIESCTCDYRRRGPGGPDWHWGGCSDNIDFGRLFGREFVDSGEKGRDLRFLMNLHNNEAGRTTVFSEMRQECKCHGMSGSCTVRTCWMRLPTLRAVGDVLRDRFDGASRVLYGNRGSNRASRAELLRLEPEDPAHKPPSPHDLVYFEKSPNFCTYSGRLGTAGTAGRACNSSSPALDGCELLCCGRGHRTRTQRVTERCNCTFHWCCHVSCRNCTHTRVLHECL
ability of recombinant RTK ligand to confer resistance (screening value) (A2058, PD184352 - 1 uM, ligand 0.4 ng/ml): 1.04 | ability of recombinant RTK ligand to confer resistance (screening value) (A2058, PD184352 - 1 uM, ligand 1.6 ng/ml): 0.99 | ability of recombinant RTK ligand to confer resistance (screening value) (A2058, PD184352 - 1 uM, ligand 6.25 ng/ml): 0.86 | ability of recombinant RTK ligand to confer resistance (screening value) (A2058, PD184352 - 1 uM, ligand 25 ng/ml): 0.98 | ability of recombinant RTK ligand to confer resistance (screening value) (A2058, PD184352 - 1 uM, ligand 100 ng/ml): 1.04 | ability of recombinant RTK ligand to confer resistance (screening value) (A2058, PLX4720 - 2 uM, ligand 0.4 ng/ml): 1.04 | ability of recombinant RTK ligand to confer resistance (screening value) (A2058, PLX4720 - 2 uM, ligand 1.6 ng/ml): 1.00 | ability of recombinant RTK ligand to confer resistance (screening value) (A2058, PLX4720 - 2 uM, ligand 6.25 ng/ml): 1.01 | ability of recombinant RTK ligand to confer resistance (screening value) (A2058, PLX4720 - 2 uM, ligand 25 ng/ml): 0.98 | ability of recombinant RTK ligand to confer resistance (screening value) (A2058, PLX4720 - 2 uM, ligand 100 ng/ml): 1.07 | ability of recombinant RTK ligand to confer resistance (screening value) (C32, PD184352 - 1 uM, ligand 0.4 ng/ml): 1.06 | ability of recombinant RTK ligand to confer resistance (screening value) (C32, PD184352 - 1 uM, ligand 1.6 ng/ml): 0.96 | ability of recombinant RTK ligand to confer resistance (screening value) (C32, PD184352 - 1 uM, ligand 6.25 ng/ml): 1.11 | ability of recombinant RTK ligand to confer resistance (screening value) (C32, PD184352 - 1 uM, ligand 25 ng/ml): 1.02 | ability of recombinant RTK ligand to confer resistance (screening value) (C32, PD184352 - 1 uM, ligand 100 ng/ml): 1.05 | ability of recombinant RTK ligand to confer resistance (screening value) (C32, PLX4720 - 2 uM, ligand 0.4 ng/ml): 1.13 | ability of recombinant RTK ligand to confer resistance (screening value) (C32, PLX4720 - 2 uM, ligand 1.6 ng/ml): 1.00 | ability of recombinant RTK ligand to confer resistance (screening value) (C32, PLX4720 - 2 uM, ligand 6.25 ng/ml): 1.03 | ability of recombinant RTK ligand to confer resistance (screening value) (C32, PLX4720 - 2 uM, ligand 25 ng/ml): 1.01 | ability of recombinant RTK ligand to confer resistance (screening value) (C32, PLX4720 - 2 uM, ligand 100 ng/ml): 0.95 | ability of recombinant RTK ligand to confer resistance (screening value) (Colo 829, PD184352 - 1 uM, ligand 0.4 ng/ml): 0.94 | ability of recombinant RTK ligand to confer resistance (screening value) (Colo 829, PD184352 - 1 uM, ligand 1.6 ng/ml): 0.93 | ability of recombinant RTK ligand to confer resistance (screening value) (Colo 829, PD184352 - 1 uM, ligand 6.25 ng/ml): 0.91 | ability of recombinant RTK ligand to confer resistance (screening value) (Colo 829, PD184352 - 1 uM, ligand 25 ng/ml): 0.85 | ability of recombinant RTK ligand to confer resistance (screening value) (Colo 829, PD184352 - 1 uM, ligand 100 ng/ml): 0.89 | ability of recombinant RTK ligand to confer resistance (screening value) (Colo 829, PLX4720 - 2 uM, ligand 0.4 ng/ml): 0.94 | ability of recombinant RTK ligand to confer resistance (screening value) (Colo 829, PLX4720 - 2 uM, ligand 1.6 ng/ml): 0.92 | ability of recombinant RTK ligand to confer resistance (screening value) (Colo 829, PLX4720 - 2 uM, ligand 6.25 ng/ml): 0.93 | ability of recombinant RTK ligand to confer resistance (screening value) (Colo 829, PLX4720 - 2 uM, ligand 25 ng/ml): 0.06 | ability of recombinant RTK ligand to confer resistance (screening value) (Colo 829, PLX4720 - 2 uM, ligand 100 ng/ml): 0.93 | ability of recombinant RTK ligand to confer resistance (screening value) (G-361, PD184352 - 1 uM, ligand 0.4 ng/ml): 0.99 | ability of recombinant RTK ligand to confer resistance (screening value) (G-361, PD184352 - 1 uM, ligand 1.6 ng/ml): 1.00 | ability of recombinant RTK ligand to confer resistance (screening value) (G-361, PD184352 - 1 uM, ligand 6.25 ng/ml): 0.93 | ability of recombinant RTK ligand to confer resistance (screening value) (G-361, PD184352 - 1 uM, ligand 25 ng/ml): 0.96 | ability of recombinant RTK ligand to confer resistance (screening value) (G-361, PD184352 - 1 uM, ligand 100 ng/ml): 0.93 | ability of recombinant RTK ligand to confer resistance (screening value) (G-361, PLX4720 - 2 uM, ligand 0.4 ng/ml): 0.94 | ability of recombinant RTK ligand to confer resistance (screening value) (G-361, PLX4720 - 2 uM, ligand 1.6 ng/ml): 0.97 | ability of recombinant RTK ligand to confer resistance (screening value) (G-361, PLX4720 - 2 uM, ligand 6.25 ng/ml): 1.01 | ability of recombinant RTK ligand to confer resistance (screening value) (G-361, PLX4720 - 2 uM, ligand 25 ng/ml): 0.97 | ability of recombinant RTK ligand to confer resistance (screening value) (G-361, PLX4720 - 2 uM, ligand 100 ng/ml): 0.98 | ability of recombinant RTK ligand to confer resistance (screening value) (SK-MEL-5, PD184352 - 1 uM, ligand 0.4 ng/ml): 0.02 | ability of recombinant RTK ligand to confer resistance (screening value) (SK-MEL-5, PD184352 - 1 uM, ligand 1.6 ng/ml): 0.91 | ability of recombinant RTK ligand to confer resistance (screening value) (SK-MEL-5, PD184352 - 1 uM, ligand 6.25 ng/ml): 1.06 | ability of recombinant RTK ligand to confer resistance (screening value) (SK-MEL-5, PD184352 - 1 uM, ligand 25 ng/ml): 1.02 | ability of recombinant RTK ligand to confer resistance (screening value) (SK-MEL-5, PD184352 - 1 uM, ligand 100 ng/ml): 1.14 | ability of recombinant RTK ligand to confer resistance (screening value) (SK-MEL-5, PLX4720 - 2 uM, ligand 0.4 ng/ml): 0.93 | ability of recombinant RTK ligand to confer resistance (screening value) (SK-MEL-5, PLX4720 - 2 uM, ligand 1.6 ng/ml): 0.90 | ability of recombinant RTK ligand to confer resistance (screening value) (SK-MEL-5, PLX4720 - 2 uM, ligand 6.25 ng/ml): 1.01 | ability of recombinant RTK ligand to confer resistance (screening value) (SK-MEL-5, PLX4720 - 2 uM, ligand 25 ng/ml): 0.97 | ability of recombinant RTK ligand to confer resistance (screening value) (SK-MEL-5, PLX4720 - 2 uM, ligand 100 ng/ml): 1.01 | ability of recombinant RTK ligand to confer resistance (screening value) (SK-MEL-28, PD184352 - 1 uM, ligand 0.4 ng/ml): 0.99 | ability of recombinant RTK ligand to confer resistance (screening value) (SK-MEL-28, PD184352 - 1 uM, ligand 1.6 ng/ml): 1.18 | ability of recombinant RTK ligand to confer resistance (screening value) (SK-MEL-28, PD184352 - 1 uM, ligand 6.25 ng/ml): 0.95 | ability of recombinant RTK ligand to confer resistance (screening value) (SK-MEL-28, PD184352 - 1 uM, ligand 25 ng/ml): 1.18 | ability of recombinant RTK ligand to confer resistance (screening value) (SK-MEL-28, PD184352 - 1 uM, ligand 100 ng/ml): 1.20 | ability of recombinant RTK ligand to confer resistance (screening value) (SK-MEL-28, PLX4720 - 2 uM, ligand 0.4 ng/ml): 1.02 | ability of recombinant RTK ligand to confer resistance (screening value) (SK-MEL-28, PLX4720 - 2 uM, ligand 1.6 ng/ml): 1.25 | ability of recombinant RTK ligand to confer resistance (screening value) (SK-MEL-28, PLX4720 - 2 uM, ligand 6.25 ng/ml): 0.99 | ability of recombinant RTK ligand to confer resistance (screening value) (SK-MEL-28, PLX4720 - 2 uM, ligand 25 ng/ml): 1.15 | ability of recombinant RTK ligand to confer resistance (screening value) (SK-MEL-28, PLX4720 - 2 uM, ligand 100 ng/ml): 1.25
